Data as given in paper PMC6817756.
Each block holds one molecule with its values, some of them ahead of it.

Tests used:
ME-47 = assay: fluorescence polarization; settings: FP: 10 mM Tris-HCl, 50 mM KCl, 1 mM EDTA, 5 mM MgCl2, 10 mM DTT, 2 nM DNA stock mixed 20 ul + 20 ul protein, 30 min, pH and temperature not stated; pulldown: …
[1] = target: Myc (human (endogenous in HCT116)) (UniProt P01106)
[2] = target: Omomyc (recombinant, bacterially expressed) (UniProt P01106); assay: SEC; size exclusion chromatography of purified Omomyc, data not shown
[3] = target: Omomyc (recombinant, bacterially expressed) (UniProt P01106); assay: native gel or EMSA; native gel electrophoresis of purified recombinant Omomyc (the legend of Fig. 1A speaks of SDS-PAGE under nonreduced and reduced conditions)
[4] = target: T1, MAX bHLH peptide (MAX/MAX) (UniProt P61244 22-103); assay: fluorescence polarization; text: fails to bind; FP: 10 mM Tris-HCl, 50 mM KCl, 1 mM EDTA, 5 mM MgCl2, 10 mM DTT, 2 nM DNA stock mixed 20 ul + 20 ul protein, 30 min, pH and temperature not stated; pulldown: 50 mM Tris-HCl pH 7.5, 5% glycerol, 1.5 mM MgCl2, 150 mM NaCl, 1 mM DTT, IGEPAL, 4 C; settings: chain copies: 2; label: 5'-FAM; blunt
[5] = target: MYC bHLH peptide (MYC/MYC) (UniProt P01106 365-454); assay: fluorescence polarization; table heading: affinity; FP: 10 mM Tris-HCl, 50 mM KCl, 1 mM EDTA, 5 mM MgCl2, 10 mM DTT, 2 nM DNA stock mixed 20 ul + 20 ul protein, 30 min, pH and temperature not stated; pulldown: 50 mM Tris-HCl pH 7.5, 5% glycerol, 1.5 mM MgCl2, 150 mM NaCl, 1 mM DTT, IGEPAL, 4 C; settings: chain copies: 2, blunt
[6] = target: T2, Omomyc (synthetic or recombinant) (UniProt P01106 365-454, E425T;E432I;R438Q;R439N); assay: as above; settings: chain copies: 2, blunt
[7] = target: MYC bHLH peptide (in MYC/MAX);MAX bHLH peptide (in MYC/MAX) (;, UniProt P01106;P61244 365-454;22-103, |); assay: as above; settings: tags: ;, copies: 1;1, blunt
[8] = target: T2, Omomyc (synthetic or recombinant); assay: fluorescence polarization; synthetic Omomyc; FP: 10 mM Tris-HCl, 50 mM KCl, 1 mM EDTA, 5 mM MgCl2, 10 mM DTT, 2 nM DNA stock mixed 20 ul + 20 ul protein, 30 min, pH and temperature not stated; pulldown: 50 mM Tris-HCl pH 7.5, 5% glycerol, 1.5 mM MgCl2, 150 mM NaCl, 1 mM DTT, IGEPAL, 4 C; settings: chain copies: 2; blunt
[9] = target: T1, MAX bHLH peptide (MAX/MAX); assay: fluorescence polarization; table heading: affinity; FP: 10 mM Tris-HCl, 50 mM KCl, 1 mM EDTA, 5 mM MgCl2, 10 mM DTT, 2 nM DNA stock mixed 20 ul + 20 ul protein, 30 min, pH and temperature not stated; pulldown: 50 mM Tris-HCl pH 7.5, 5% glycerol, 1.5 mM MgCl2, 150 mM NaCl, 1 mM DTT, IGEPAL, 4 C; settings: chain copies: 2; blunt

Molecule: CCCCCACCACGTGGTGCCTGA (double strand) [E box DNA (FP probe)]
- Kd (ME-47): 117 nM

- cellular thermal shift assay (CETSA) in Ramos cell lysates with 20 μM Omomyc: change in the aggregation temperature (Tagg) of Myc (destabilisation) [1]: 6 °C
- cellular thermal shift assay (CETSA), isothermal dose-response fingerprint at 54°C in Ramos cell lysates: EC50 of Omomyc for thermal destabilisation of Myc [1]: 16000 nM
- stoichiometry N [2]: 2
- stoichiometry N [3]: 2
Molecule: Omomyc (recombinant, bacterially expressed) (from UniProt P01106 369-421) (domain or fragment)

Molecule: CCCCCACCACGCGGTGCCTGA (double strand) [VEGFA-2 E box]
- Kd (ME-47): 3110 nM

Molecule: CCCCCACCACCTGGTGCCTGA (double strand) [VEGFA-1 E box]
- Kd (ME-47): 1080 nM

B1: VEGFA-1 E box (dsDNA)
DNA 1: CCCCCACCACCTGGTGCCTGA
DNA 2: TCAGGCACCAGGTGGTGGGGG
- Kd [4]: 3390 nM
- Kd ([5]; label: 5'-FAM): 140 nM
- Kd ([6]; label: 5'-FAM): 103 nM
- Kd ([7]; label: 5'-FAM): 397 nM

B2: VEGFA-2 E box (dsDNA)
DNA 1: CCCCCACCACGCGGTGCCTGA
DNA 2: TCAGGCACCGCGTGGTGGGGG
- Kd [4]: 2020 nM
- Kd ([5]; label: 5'-FAM): 111 nM
- Kd ([6]; label: 5'-FAM): 99.2 nM
- Kd ([7]; label: 5'-FAM): 451 nM

B3: E box DNA (FP probe) (dsDNA)
DNA 1: CCCCCACCACGTGGTGCCTGA
DNA 2: TCAGGCACCACGTGGTGGGGG
- Kd [8]: ~22 nM
- Kd [5]: 159 nM
- Kd [6]: 107 nM
- Kd [9]: 258 nM
- Kd [7]: 71.4 nM
